Test results: the supplement of paper PMC6757056
± gives the standard deviation of the averaged measurements.

B1: library; a variant is named by its letters at N, in order (parent)
chain: GCUGUCACCGGUGCUUGGUACGUUAUAUUCAGCCGGUCUGAUGAGUCUNNNNNNAGACGAAACAGC

Key:
(6R,S)-folinic acid [1] = variants of: B1; experiment: normalized RNA/DNA level without ligand (relative to sTRSVctl = 100) (log10 (% of sTRSVctl)); HEK293T overexpressing SLC46A1; higher = less ribozyme self-cleavage, higher mRNA level; details: without (6R,S)-folinic acid; ligand present: no
Procedure, shortened: (§1)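 Only sequences with at least 100 DNA reads were analyzed, from HEK293T cells transfected with 4 µg per 6-well well of ribozyme switch library plasmids 72 h before RNA extraction with EDTA. Any ligand was added 1 h before transfection. RNA level was defined as RNA over DNA reads, normalized to a spiked-in non-cleaving sequence or to the top sequences, then scaled and log-transformed. The top set was 25 sequences, and the scaling was ×100 followed by log10.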

(6R,S)-folinic acid [2] = variants of: B1; experiment: normalized RNA/DNA level with ligand (relative to sTRSVctl = 100) (log10 (% of sTRSVctl)); HEK293T overexpressing SLC46A1; ligand concentration (+) RNA-Seq: 6 mM; higher = less ribozyme self-cleavage, higher mRNA level; details: with (6R,S)-folinic acid; ligand present: yes
Procedure, shortened: as §1

Variant | normalized RNA/DNA level without ligand (log10) ((6R,S)-folinic acid [1]) | normalized RNA/DNA level with ligand (log10) ((6R,S)-folinic acid [2])
CGCGCA | 2.036 ± 0.014 | 2.04 ± 0.026
CGCGCG | 1.995 ± 0.016 | 1.95 ± 0.1
CGCGCC | 2.096 ± 0.0053 | 2.0477 ± 0.00068
CGCGCU | 2.08 ± 0.043 | 2.05 ± 0.047
UGAUUC | 2.058 ± 0.0048 | 2.04 ± 0.04
UGAUUU | 1.9907 ± 0.00083 | 2.02 ± 0.023
UGCGUA | 1.904 ± 0.015 | 1.98 ± 0.035
UGCACG | 1.8081 ± 0.0015 | 1.977 ± 0.013
UGCACA | 1.97 ± 0.024 | 2.01 ± 0.036
UGCACU | 2.017 ± 0.0058 | 2.04 ± 0.033
UGCACC | 2.036 ± 0.0046 | 1.98 ± 0.028
UGCCGA | 1.9547 ± 0.0011 | 2.02 ± 0.046
UGCCGU | 2.009 ± 0.019 | 2.02 ± 0.042
UGCCGC | 2.03 ± 0.031 | 2.02 ± 0.048
CGAUCC | 2.05 ± 0.023 | 2.06 ± 0.036
CGAUCG | 2.042 ± 0.013 | 2.05 ± 0.034
CGAUCA | 2.008 ± 0.0093 | 2.04 ± 0.05
CGAUCU | 2.062 ± 0.0057 | 2.06 ± 0.03
GGCGGU | 2.06 ± 0.026 | 2.03 ± 0.037
GGCGGG | 2.1126 ± 0.00086 | 2.08 ± 0.028
GGCGGC | 2.012 ± 0.018 | 2.014 ± 0.013
GGCGGA | 2.064 ± 0.0089 | 2.021 ± 0.016
GGCCUA | 2.04 ± 0.021 | 2.01 ± 0.045

Variant | normalized RNA/DNA level without ligand (log10) ((6R,S)-folinic acid [1]) | normalized RNA/DNA level with ligand (log10) ((6R,S)-folinic acid [2])
GGCCUG | 2.064 ± 0.015 | 2.03 ± 0.085
GGCCUC | 2.044 ± 0.018 | 2.06 ± 0.025
GGCCUU | 2.108 ± 0.0078 | 2.09 ± 0.042
CGAGAU | 1.957 ± 0.011 | 1.99 ± 0.025
CGAGAG | 1.964 ± 0.015 | 1.964 ± 0.0059
AGCCGA | 2.004 ± 0.0033 | 2.02 ± 0.025
AGCCGC | 2.037 ± 0.0083 | 2.02 ± 0.044
AGCCGG | 2.068 ± 0.019 | 2.01 ± 0.045
AGAUCU | 2.0242 ± 0.00035 | 2.05 ± 0.032
AGAUCC | 2.058 ± 0.0091 | 2.033 ± 0.02
AGAUCG | 1.992 ± 0.0077 | 2.013 ± 0.019
UGAGGU | 1.918 ± 0.017 | 2.02 ± 0.032
UGAGGC | 1.982 ± 0.0067 | 1.98 ± 0.073
GGAGGG | 1.98 ± 0.028 | 2.04 ± 0.046
GGAGGA | 1.975 ± 0.0041 | 2.01 ± 0.046
UGCGGC | 1.998 ± 0.006 | 1.98 ± 0.045
UGCGGU | 1.976 ± 0.014 | 2.03 ± 0.025
UGCGGA | 1.886 ± 0.0066 | 2.01 ± 0.04
AGCCAC | 2.016 ± 0.003 | 2 ± 0.037
AGCCAU | 1.986 ± 0.013 | 1.99 ± 0.029
AGCCAG | 1.985 ± 0.0073 | 2.04 ± 0.035
AGCCAA | 1.9858 ± 0.00027 | 1.99 ± 0.037
UGCCUA | 2.03 ± 0.023 | 2.03 ± 0.023

Variant | normalized RNA/DNA level without ligand (log10) ((6R,S)-folinic acid [1]) | normalized RNA/DNA level with ligand (log10) ((6R,S)-folinic acid [2])
UGCCUU | 2.0129 ± 0.0012 | 2.011 ± 0.018
UGCCUC | 2.065 ± 0.0067 | 2 ± 0.065
GGCGUA | 2.068 ± 0.004 | 2.04 ± 0.03
CGAGUA | 1.965 ± 0.0014 | 2 ± 0.04
CGAGUC | 2.053 ± 0.0089 | 2.037 ± 0.0081
CGCGAU | 1.939 ± 0.0057 | 1.97 ± 0.041
CGCGAG | 1.98 ± 0.039 | 2 ± 0.037
CGCGAC | 2.0427 ± 0.0011 | 2.04 ± 0.029
CGCGAA | 1.9769 ± 0.0003 | 2.01 ± 0.031
UGCAGC | 1.982 ± 0.0063 | 2.012 ± 0.018
UGCAGU | 1.9094 ± 0.0015 | 1.96 ± 0.026
CGAUUC | 2.089 ± 0.019 | 2.08 ± 0.048
CGAUUU | 1.984 ± 0.0069 | 2 ± 0.026
CGAUUA | 1.958 ± 0.017 | 1.992 ± 0.013
CGAUUG | 2.028 ± 0.018 | 2.02 ± 0.035
GGAUGA | 2.024 ± 0.02 | 2.058 ± 0.0075
GGAUGG | 1.948 ± 0.012 | 2.02 ± 0.033
GGAUGU | 1.972 ± 0.0047 | 2.03 ± 0.052
GGAUGC | 1.912 ± 0.002 | 1.962 ± 0.015
CGAGCA | 2 ± 0.021 | 2.02 ± 0.029
CGAGCG | 1.994 ± 0.015 | 1.998 ± 0.017
CGAGCC | 2.06 ± 0.028 | 2.03 ± 0.039
CGAGCU | 2.014 ± 0.02 | 2.03 ± 0.04

Variant | normalized RNA/DNA level without ligand (log10) ((6R,S)-folinic acid [1]) | normalized RNA/DNA level with ligand (log10) ((6R,S)-folinic acid [2])
AGAGUG | 1.71 ± 0.035 | 1.98 ± 0.039
AGAGUA | 1.94 ± 0.0059 | 2.01 ± 0.033
AGAGUU | 2.002 ± 0.0079 | 2.011 ± 0.0021
AGAGUC | 2.059 ± 0.0045 | 2.02 ± 0.034
CGAUAC | 1.995 ± 0.013 | 2.015 ± 0.0083
CGAUAA | 1.946 ± 0.015 | 1.98 ± 0.04
CGAUAU | 1.949 ± 0.0095 | 2.01 ± 0.028
CGAUAG | 1.959 ± 0.0024 | 1.977 ± 0.01
GGCGAG | 2.05 ± 0.017 | 2.018 ± 0.018
GGCGAA | 2.051 ± 0.0044 | 2.04 ± 0.021
UGAUCA | 1.99 ± 0.021 | 2 ± 0.038
UGAUCU | 1.995 ± 0.012 | 2.04 ± 0.091
UGAUCC | 2.059 ± 0.012 | 2.03 ± 0.049
GGCACA | 2.085 ± 0.009 | 2.03 ± 0.031
GGCACG | 2.047 ± 0.014 | 2.03 ± 0.038
GGAUAU | 2.0169 ± 0.0015 | 2.02 ± 0.023
GGAUAG | 1.95 ± 0.0034 | 2.03 ± 0.038
GGAUAC | 1.988 ± 0.011 | 2.034 ± 0.013
GGCCGU | 2.0789 ± 0.0012 | 2.02 ± 0.007
GGCCGA | 2.081 ± 0.0077 | 2.05 ± 0.037
GGCCGC | 2.073 ± 0.012 | 2.083 ± 0.011
GGCCGG | 2.08 ± 0.021 | 2.051 ± 0.015
UGAUAU | 1.92 ± 0.034 | 1.984 ± 0.014

Variant | normalized RNA/DNA level without ligand (log10) ((6R,S)-folinic acid [1]) | normalized RNA/DNA level with ligand (log10) ((6R,S)-folinic acid [2])
UGAUAG | 1.7093 ± 0.0017 | 1.96 ± 0.049
CGAUGG | 1.928 ± 0.017 | 1.972 ± 0.019
CGAUGA | 2.011 ± 0.0023 | 2.02 ± 0.078
CGAUGU | 1.98 ± 0.0073 | 1.99 ± 0.047
CGAUGC | 2.039 ± 0.0072 | 2.008 ± 0.0096
UGAGUC | 2.011 ± 0.012 | 2 ± 0.049
UGAGUU | 1.943 ± 0.0073 | 1.99 ± 0.035
CGCCAC | 2 ± 0.028 | 1.99 ± 0.042
CGCCAU | 1.986 ± 0.0097 | 1.98 ± 0.034
CGCCAA | 1.973 ± 0.014 | 2.02 ± 0.048
AGAUUU | 2.0581 ± 0.0011 | 2.04 ± 0.024
AGAUUG | 1.89 ± 0.014 | 2.004 ± 0.018
GGCAUC | 2.055 ± 0.014 | 2.03 ± 0.033
GGCAUU | 2.08 ± 0.025 | 2.04 ± 0.039
GGCAUG | 2.064 ± 0.0071 | 2.03 ± 0.033
UGCAUA | 1.948 ± 0.015 | 1.99 ± 0.068
UGCAUC | 2.07 ± 0.032 | 2.035 ± 0.015
UGAUGC | 1.954 ± 0.013 | 1.998 ± 0.01
AGCCCG | 2.02 ± 0.0096 | 2.02 ± 0.0065
AGCCCU | 2.078 ± 0.009 | 2.05 ± 0.042
AGCCCA | 2.045 ± 0.0089 | 2.02 ± 0.028
AGCCCC | 2.051 ± 0.0083 | 2 ± 0.036
AGCGGC | 2.104 ± 0.0038 | 2.05 ± 0.039
